In patent US20230391852A1 (US Dept. of Health and Human Services, published 2023):
“And” between values parts separate entries of the source, which are not always exact repeats. Identical values can stand only once.

Columns and labels:
[1] = molecular target: SARS-CoV-2 spike on pseudovirus (SARS-CoV-2, UniProt P0DTC2 14-1273); assay: cell-based or functional assay
SARS-CoV S1 = molecular target: T1, SARS-CoV S1 (SARS-CoV, UniProt P59594 14-667); assay: ELISA, 1 µg/ml coated antigen, 1 µg/ml VHH-hFc
T1 construct: domain: S1; also called SARS-CoV S1 protein

BSA = molecular target: T2, BSA (UniProt P02769 25-607); assay: ELISA, 1 µg/ml coated BSA, 1 µg/ml VHH-hFc
T2 construct: also called control protein
T2 sequence (P02769 25-607 limits assumed): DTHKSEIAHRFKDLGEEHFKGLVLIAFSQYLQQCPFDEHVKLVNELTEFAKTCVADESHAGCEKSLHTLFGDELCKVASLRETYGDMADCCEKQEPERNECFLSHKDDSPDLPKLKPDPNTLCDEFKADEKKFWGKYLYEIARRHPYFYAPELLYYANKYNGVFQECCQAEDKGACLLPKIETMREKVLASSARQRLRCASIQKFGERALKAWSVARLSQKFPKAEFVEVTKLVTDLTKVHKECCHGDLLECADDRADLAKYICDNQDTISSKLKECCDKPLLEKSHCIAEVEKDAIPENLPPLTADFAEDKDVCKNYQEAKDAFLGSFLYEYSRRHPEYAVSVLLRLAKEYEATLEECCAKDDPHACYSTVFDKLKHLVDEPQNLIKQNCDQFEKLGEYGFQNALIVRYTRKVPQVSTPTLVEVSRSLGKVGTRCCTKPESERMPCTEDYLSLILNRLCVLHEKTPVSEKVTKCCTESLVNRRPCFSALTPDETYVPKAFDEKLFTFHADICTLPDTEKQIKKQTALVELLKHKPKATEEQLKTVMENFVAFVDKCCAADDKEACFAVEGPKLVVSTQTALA

SARS-CoV-2 S1 = molecular target: T3, SARS-CoV-2 S1; assay: monoclonal phage ELISA, drawn table of OD450 values
T3 construct: also called S1 subunit of the SARS-CoV-2 spike protein

SARS-CoV-2 S trimer = molecular target: T4, SARS-CoV-2 S trimer (SARS-CoV-2, UniProt P0DTC2 16-1213); assay: as above
T4 construct: also called SARS-CoV-2 S protein; S homotrimer protein

RBD-mFc [2] = molecular target: T5, RBD-mFc (SARS-CoV-2, UniProt P0DTC2 319-541)
[3] = molecular target: T6, SARS-CoV S protein trimer expressed on human A431 cells (SARS-CoV, UniProt P59594 14-1255); assay: flow cytometry on A431 cells expressing SARS-CoV S (A431-CoV-S)
T6 construct: whole, on cells; also called S protein of SARS-CoV

RBD-mFc [4] = molecular target: T5, RBD-mFc; remark: listed apart in the source
SARS-CoV-2 RBD [5] = molecular target: T7, SARS-CoV-2 RBD (SARS-CoV-2, UniProt P0DTC2 319-541); assay: monoclonal VHH phage clone binding screen (FIG. 3A)
SARS-CoV-2 RBD [6] = molecular target: T7, SARS-CoV-2 RBD; assay: monoclonal phage ELISA, drawn table of OD450 values
[7] = molecular target: T6, SARS-CoV S protein trimer expressed on …; assay: flow cytometry on A431 cells expressing SARS-CoV S protein trimer (FIG. 3B)

B1: 3E8 VHH-hFc (Fc fusion)
chain: QVQLVESGGGLVQAGGSLRLSCATSGFTFSGGYMAWVRQVPGKGLEWVANSIYDGSTYYSDAVKGRFTVSQDNAENTVYLEMNSLEPEDTAMYYCAAGWNGGPWSRTNAYIYWGQGTQVTVSS
notes: also called NCI-CoV-3E8 VHH-hFc fusion protein
IC50, SARS-CoV-2 spike pseudovirus neutralization, repeated assay (FIGS. 9A-9F) [1]: 1170 nM | binding result (SARS-CoV S1): binds | binding result (BSA): no binding (tested: 1 µg/ml)

B2: NCI-CoV-1A10 (VHH)
VHH: AVQLVDSGGGSVQAGGSLRLSCAASGFTGSNYCLGWFRQAPGKEREGVAVIERDTGGTTYPNSLEGRFTIAQDNAKNMVYLHMRNLQPEDTGTYTCAAARNGDSFGGFTFWGQGTQVTVSS
OD450 (SARS-CoV-2 S1): 0.84 | OD450 (SARS-CoV-2 S trimer): 0.63

B3: 1H6 VHH-hFc (Fc fusion)
chain: AVQLVDSGGGSVQAGGSLNLSCVASGTTLRNGCMAWFRQVPGKEREVVAIIIRATSYTDYADSVKGRFTISQDNAKNTVYLQMKSLTPEDTATYYCAATLYRVNCAKREFDKWGQGTQVTVSS
notes: also called 1H6-hFc; NCI-CoV-1H6 VHH-hFc fusion protein
Kd (SARS-CoV-2): 37 nM | binding result (SARS-CoV S1): no binding (tested: 1 µg/ml)

B4: NCI-CoV-1H6 (VHH)
VHH: AVQLVDSGGGSVQAGGSLNLSCVASGTTLRNGCMAWFRQVPGKEREVVAIIIRATSYTDYADSVKGRFTISQDNAKNTVYLQMKSLTPEDTATYYCAATLYRVNCAKREFDKWGQGTQVTVSS
OD450 (SARS-CoV-2 S1): 0.82 | OD450 (SARS-CoV-2 S trimer): 0.72

B5: NCI-CoV-1G11 (VHH)
VHH: QVQLVESGGGSVQAGGSLRLSCVASGDTNTRQYMGWFRQAPGKEREGVAVVHSDSGGTYYADSVKERFIIAQDNAKNTVYLTMNSLKVEDTAIYYCAAKTLEKPHFSVFSAASYDYWGQGTQVTVSS
OD450 (SARS-CoV-2 S1): 0.68

B6: NCI-CoV-8E1 (VHH)
VHH: EVQLVESGGGSVQAGGSLRLSCAASGFTFSSYYMSWVRQAPGKGLEWVSGIYSDGSTYYGDSVKGRFTISRDNAKNTLYLQMNSLKSEDTALYYCAIGTGTTRQGQGTQVTVSS
OD450 (SARS-CoV-2 S1): 0.51 | OD450 (SARS-CoV-2 S trimer): 0.58

B7: 1B5 VHH-hFc (Fc fusion)
chain: DVQLVESGGGSVQAGGSLRLSCTGSRYTYSTYCMGWFRQAPGKEEEAVAIINSGGGEPYYGDSVKGRFTISQDRAKNTVYLQMDGLQPDDTAIYYCVAADSHNSRCYLGRSYVNYWGQGTQVTVSS
notes: also called 1B5-hFc; NCI-CoV-1B5 VHH-hFc fusion protein
IC50 (read off the curve) (RBD-mFc [2]): ~0.3 µg/mL | Kd (SARS-CoV-2): 0.1 nM | IC50, SARS-CoV-2 spike pseudovirus neutralization on HEK 293T-hACE2 cells [1]: 6.6 nM and 0.55 µg/ml | IC50, SARS-CoV-2 spike pseudovirus neutralization, repeated assay (FIGS. 9A-9F) [1]: 7.6 nM | percent of cells right of the dashed gate line [3]: 98.3% | binding result (BSA): no binding (tested: 1 µg/ml) | IC50 (RBD-mFc [4]): < 0.001 µg/mL

B8: NCI-CoV-4C6 (VHH)
VHH: QVQLVESGGGSVQAGESLRLSCAVSGISSSTHYMAWFRQLPGKEREGLANIYTPAKVSLYANDVKGRFTISQDVTKNTVYLQMNSLKPEDTAMYYCAARRNAVCNAGSPLDFEFSYWGQGTQVTVSS
binding result (SARS-CoV-2 RBD [5]): binds

B9: NCI-CoV-8B6 (VHH)
VHH: AVQLVDSGGGSVQAGGSLRLSCAASGITYSTNCMGWFRQAPGKGLEWVSGINSDGRNTYYADSVKGRFTISQDNAKNTVYLQMNSLKPEDTAMYYCAAGSWYNQWGYSMDYWGQGTQVTVSS
binding result (SARS-CoV-2 RBD [5]): binds | OD450 (SARS-CoV-2 S1): 0.88

B10: NCI-CoV-7E7 (VHH)
VHH: AVQLVDSGGGSVQSGGSLRLSCVASGYTYSIYNMGWFRQAPGKGLEWVSGINSDGSNTYYADSVKGRFTISRDNAKNTLYLQMNSLKSEDTALYYCATLPICSGGYCPPGYWGQGTQVTVSS
OD450 (SARS-CoV-2 S trimer): 0.57 | OD450 (SARS-CoV-2 RBD [6]): 1

B11: 8A2 VHH-hFc (Fc fusion)
chain: AVQLVDSGGGSVQAGGSLRLSCAASGYTYSICTMGWYRQAPGEGLEWVSGINADGSNTHYTDSVKGRFTISRDNAKKTLYLQMNSLKPEDTAIYYCAAHGTYDKYAPCGGFAGTYTYWGQGTQVTVSS
notes: also called NCI-CoV-8A2 VHH-hFc
Kd (SARS-CoV-2): 0.26 nM | percent of cells right of the dashed gate line [3]: 59.2% | binding result [7]: no binding

B12: 2F7 VHH-hFc (Fc fusion)
chain: QVKLEESGGGSVQSGGSLRLSCTVSRDTNTNINRCMGWFRQAPGKGLETVATINRDGTNTYYTDAVKGRFTISQDNVKNTVYLQMNNLTPEDTGTYICNAMGRGSGSRCDNWDPNYWGQGTQVTVSS
notes: also called 2F7-hFc; NCI-CoV-2F7 VHH-hFc fusion protein
binding result (SARS-CoV S1): no binding (tested: 1 µg/ml) | binding result (BSA): no binding (tested: 1 µg/ml)

B13: NCI-CoV-8G12 (VHH)
VHH: AVQLVDSGGGSVQAGGSLRLSCAASGYTSNMNHMGWFRQAPGKGLEWVSGIYSDGSTYYGDSVKGRFTISRDNAKNMLYLQMNNLKPEDTAVYYCSGDGGGIGYNYWGQGTQVTVSS
OD450 (SARS-CoV-2 S1): 0.62 | OD450 (SARS-CoV-2 S trimer): 0.6

B14: 2C7 VHH-hFc (Fc fusion)
chain: EVQLVESGGGSVQTGGSLRLSCVVSGYDYSNYCVAWFRQAEGKNREGLAGINTHGAYTNYNTPAKGRFTISQDLTKNTFTLQMNSLTPEDTAIYYCAAYPEYCPRFSSSSWNNSAVWGQGTQVTVSS
notes: also called NCI-CoV-2C7 VHH-hFc fusion protein
IC50, SARS-CoV-2 spike pseudovirus neutralization, repeated assay (FIGS. 9A-9F) [1]: 5790 nM | binding result (BSA): no binding (tested: 1 µg/ml)

B15: 7C4 VHH-hFc (Fc fusion)
chain: EVQLVESGGGLVQPGGSLRLSCTASGFTFSSYDMSWVRQAPGKGLEWVSGINSGGNKIYYADSVKGRFTISRDNAKNTLYLQMSSLKSEDTALYYCAIGRLYSVKGQGTQVTVSS
notes: also called NCI-CoV-7C4 VHH-hFc fusion protein
IC50, SARS-CoV-2 spike pseudovirus neutralization, repeated assay (FIGS. 9A-9F) [1]: 4290 nM | binding result (SARS-CoV S1): binds | binding result (BSA): no binding (tested: 1 µg/ml)

B16: NCI-CoV-7C4 (VHH)
VHH: EVQLVESGGGLVQPGGSLRLSCTASGFTFSSYDMSWVRQAPGKGLEWVSGINSGGNKIYYADSVKGRFTISRDNAKNTLYLQMSSLKSEDTALYYCAIGRLYSVKGQGTQVTVSS
OD450 (SARS-CoV-2 S1): 0.52 | OD450 (SARS-CoV-2 S trimer): 0.76

B17: 7A5 VHH-hFc (Fc fusion)
chain: AVQLVESGGGLVQPGGSLRLSCAASGFTFSSYYMSWVRQAPGKGLEWVSTINSRGSSTYYADSVKGRFTISRDNAKNTLYLQMSSLKSEDTALYYCAIGRLYSVKGQGTQVTVSS
notes: also called NCI-CoV-7A5 VHH-hFc fusion protein
IC50, SARS-CoV-2 spike pseudovirus neutralization, repeated assay (FIGS. 9A-9F) [1]: 3430 nM | binding result (SARS-CoV S1): binds | binding result (BSA): binds

B18: 7A3 VHH-hFc (Fc fusion)
chain: QVQLVESGGGSVQPGGSLRLSCVVSGYTSSSRYMGWFRQVPGKGLEWVSGIKRDGTNTYYADSVKGRFTISQDNAKNTVYLQMNSLKPEDTAMYYCAAGSWYNQWGYSMDYWGKGTQVTVSS
notes: also called 7A3-hFc; NCI-CoV-7A3 VHH-hFc fusion protein
Kd (SARS-CoV-2): 0.2 nM | percent of cells right of the dashed gate line [3]: 92.1%

B19: NCI-CoV-7A3 (VHH)
VHH: QVQLVESGGGSVQPGGSLRLSCVVSGYTSSSRYMGWFRQVPGKGLEWVSGIKRDGTNTYYADSVKGRFTISQDNAKNTVYLQMNSLKPEDTAMYYCAAGSWYNQWGYSMDYWGKGTQVTVSS
OD450 (SARS-CoV-2 S1): 0.54 | OD450 (SARS-CoV-2 S trimer): 0.59

B20: 8A4 VHH-hFc (Fc fusion)
chain: EVQLVESGGGLVQPGESLRLSCEASGFTFSSVYMSWVRQAPGKGLEWISTIHPAGGSTYYADSMKDRFTISRDNAKNTLYLQMNSLKSEDTALYYCIIEALSGYRGPGTQVTVSS
notes: also called 8A4-hFc; NCI-CoV-8A4 VHH-hFc fusion protein
binding result (SARS-CoV S1): binds | binding result (BSA): no binding (tested: 1 µg/ml)

B21: 1A7 VHH-hFc (Fc fusion)
chain: QVQLVESGGGLVQPGGSLRLSCVASGFTFSSVDMSWVRQDPRKGLEWVSGINSGGGSTSYADSVKGQFTISRDNAKNTLYLEMNNLKPEDTAVYYCATGLAASGVWGQGTQVTVSS
notes: also called NCI-CoV-1A7 VHH-hFc fusion protein
IC50, SARS-CoV-2 spike pseudovirus neutralization, repeated assay (FIGS. 9A-9F) [1]: 428 nM | binding result (BSA): no binding (tested: 1 µg/ml)
